What was measured:
[1] = molecular target: the molecule itself; assay: crystal structure; p73DBD S139F mixed at 2:1 molar ratio with annealed 20 bp DNA (…); hanging drop, 0.1 M Tris pH 8.5, 50-125 mM sodium acetate, 20-24% PEG 3350, room temperature; 3.7 A; asymmetric unit holds two protein molecules and one 10 bp half-site, the tetramer is made by crystal symmetry
p73 DBD S139F [2] = molecular target: T1, p73 DBD S139F (human, UniProt O15350 115-312, S139F); assay: fluorescence polarization; Hill 1.5 ± 0.2; FP: 50 nM fluorescein-DNA, 0-20000 nM protein, 30 min on ice then room temperature; buffer, salt and pH not stated. Crystals: 0.1 M Tris pH 8.5, 50-125 mM sodium acetate, 20-24% PEG 3350, room temperature; settings: protein: recombinant; chain copies: 2; label: fluorescein; self-complementary
T1 sequence: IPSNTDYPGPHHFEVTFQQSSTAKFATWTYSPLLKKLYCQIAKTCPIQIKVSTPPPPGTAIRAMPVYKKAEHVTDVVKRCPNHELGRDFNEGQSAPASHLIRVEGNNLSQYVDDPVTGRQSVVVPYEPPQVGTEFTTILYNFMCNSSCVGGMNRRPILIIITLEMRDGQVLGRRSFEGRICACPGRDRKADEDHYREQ

[3] = molecular target: T2, deltaNp73delta isoform WT (UniProt O15350-4 63-403); assay: fluorescence polarization; FP: 50 nM fluorescein-DNA, 0-20000 nM protein, 30 min on ice then room temperature; buffer, salt and pH not stated. Crystals: 0.1 M Tris pH 8.5, 50-125 mM sodium acetate, 20-24% PEG 3350, room temperature; settings: protein: recombinant, chain copies: 4, label: fluorescein
T2 sequence: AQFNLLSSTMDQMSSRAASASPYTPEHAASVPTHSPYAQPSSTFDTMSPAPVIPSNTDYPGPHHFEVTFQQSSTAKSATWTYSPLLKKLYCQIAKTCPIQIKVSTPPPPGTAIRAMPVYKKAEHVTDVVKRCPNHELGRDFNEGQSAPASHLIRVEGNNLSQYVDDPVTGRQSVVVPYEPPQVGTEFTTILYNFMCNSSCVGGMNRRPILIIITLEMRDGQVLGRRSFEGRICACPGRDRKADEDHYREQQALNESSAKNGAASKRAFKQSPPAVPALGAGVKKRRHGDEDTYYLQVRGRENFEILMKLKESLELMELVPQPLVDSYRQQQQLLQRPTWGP

p73 DBD S139F [4] = molecular target: T1, p73 DBD S139F; assay: fluorescence polarization; Hill 1.9 ± 0.2; FP: 50 nM fluorescein-DNA, 0-20000 nM protein, 30 min on ice then room temperature; buffer, salt and pH not stated. Crystals: 0.1 M Tris pH 8.5, 50-125 mM sodium acetate, 20-24% PEG 3350, room temperature; settings: protein: recombinant; chain copies: 2; label: fluorescein
p73 DBD S139F [5] = molecular target: T1, p73 DBD S139F; assay: fluorescence polarization; Hill 1.7 ± 0.1; FP: 50 nM fluorescein-DNA, 0-20000 nM protein, 30 min on ice then room temperature; buffer, salt and pH not stated. Crystals: 0.1 M Tris pH 8.5, 50-125 mM sodium acetate, 20-24% PEG 3350, room temperature; settings: protein: recombinant; chain copies: 2; label: fluorescein; self-complementary

B1: p73DBD S139F (human p73 DNA-binding domain, residues 115-312, S139F mutant) (domain or fragment, UniProt O15350 115-312, looked up)
chain: IPSNTDYPGPHHFEVTFQQSSTAKFATWTYSPLLKKLYCQIAKTCPIQIKVSTPPPPGTAIRAMPVYKKAEHVTDVVKRCPNHELGRDFNEGQSAPASHLIRVEGNNLSQYVDDPVTGRQSVVVPYEPPQVGTEFTTILYNFMCNSSCVGGMNRRPILIIITLEMRDGQVLGRRSFEGRICACPGRDRKADEDHYREQ
notes: Crystallised with a 20 bp GAACA full-site DNA; On the DNA it forms a tetramer (dimer of dimers); also called p73 S139F DBD; S139F DBD mutant
Question: With B1 as the binder, how does the “stoichiometry N” value [1] read?
Answer: 4

B2: 12mer GGGCA half-site (dsDNA)
DNA 1: TGGGCATGCCCA
DNA 2: TGGGCATGCCCA
Question: With B2 as the binder, how does the Kd (p73 DBD S139F [2]) read?
Answer: 1540 nM

B3: 20mer GGGCA full-site (4/4 RY) (dsDNA)
DNA 1: GGGCATGCCCGGGCATGCCC
DNA 2: GGGCATGCCCGGGCATGCCC
Question: What does the source list for B3?
Answer: Kd [3]: 160 nM; Kd (p73 DBD S139F [4]): 230 nM

B4: 20mer GAACA full-site (0/4 RY) (dsDNA)
DNA 1: GAACATGTTCGAACATGTTC
DNA 2: GAACATGTTCGAACATGTTC
Question: With B4 as the binder, how does the Kd ([3]; self-complementary) read?
Answer: 940 nM

Question: And the Kd (p73 DBD S139F [5])?
Answer: 4480 nM

From paper PMC3794606, “Transactivation specificity is conserved among p53 family proteins and depends on a response element sequence code” (Nucleic Acids Research, 2013)
